Here are results for three molecules from patent US20150010525A1, “Catalytic Tagging System to Study Macro-Molecular Interactions Using Engineered Ubiquitin Ligase and Ubiquitin-Like Proteins to Facilitate Substrate Identification” (THE REGENTS OF THE UNIVERSITY OF CALIFORNIA, priority 2012, published 2015).

Assay [1] concerns proteasome. Nature of the assay: PGAM5(Δ24) ubiquitination in HeLa cells. The settings on record: HA-Ubiquitin and PGAM5(Δ24)-Myc. In kind it is cell-based.
Description: HeLa cells are transiently co-transfected with HA-Ubiquitin, PGAM5(Δ24)-Myc, with or without XIAP or the treatment of MG132. Ubiquitination of PGAM5(Δ24)-Myc are addressed by immunoprecipitating with Myc antibody then blotting with HA antibody.
HeLa cells were transfected with Lipofectamine 2000 (Invitrogen). Cells were lysed either in M-PER mammalian protein extraction buffer (Thermo) or NP40 buffer (50 mM HEPES pH 7.4, 150 mM NaCl, 1% NP40), supplemented with protease inhibitor cocktail (Thermo). 10% SDS-polyacrylamide gel (PAGE) combined with MOPS running buffer was used to separate full length PGAM5 from the truncated form for immuno-blotting analysis. 4-12% SDS-PAGE gels were generally used for all other analysis. Immuno-precipitation with anti-Myc tag antibody (cell signaling) was performed with a standard procedure using manufacture's instructions.
For assay [2], the system named is Jurkat and HeLa cells. As to the kind of experiment: Cytosolic PGAM5(Δ24) immunoblot in apoptotic cells. In kind it is cell-based. To be noted: 1 μM STS, 4 hours. (In general: A western blot detects proteins with antibodies after separation by electrophoresis.)
Assay [3] addresses T1, GST-XIAP (Homo sapiens, UniProt P98170).
T1 construct: made in house
Nature of the assay: In vitro GST pull down. The settings on record: recombinant proteins. Format: binding. From the text: (§1) FIG. 12 illustrates the identification of the proteolytic form of PGAM5 as an XIAP and cIAP1 substrate in vitro. […] Overall, 15 unique peptides from PGAM5 were recovered and account for 43% of the entire protein sequence. (B) An example of LC-MS/MS spectrum from endogenous PGAM5 N-terminal peptide after subtiligase labeling and positive enrichment. A non-natural amino acid, 2-aminobutyric acid (Abu), is a designed tag showing characteristic labeling by subtiligase. (C) PGAM5 is cleaved into a truncated form in cells. Jurkat cells were transiently transfected with C-terminal Myc tagged full length PGAM5 or PGAM5 (Δ2-24). […] (D) N-terminal amino acid sequence alignment of PGAM5(Δ24) and other known evolutionarily conserved IBM sequences. Reaper, Hid, and Grim are Drosophila proteins that bind DIAP1, the Drosophila IAP. Amino acids are colored according to their chemical properties. (E) XIAP binds PGAM5(Δ24) but not the full length PGAM5. Recombinant GST fused XIAP, PGAM5(FL), and PGAM5(Δ24) were used for in vitro GST pull down experiments. (F) PGAM5(Δ24) binds to XIAP and cIAP1 independent of the RING domain. […] The resins were washed and proteins were eluted and analyzed with SDSPAGE and coomassie blue staining. […] The ubiquitination assay was performed in vitro and PGAM5 is detected with an anti-His antibody.

Assay [4] has as its target XIAP (Homo sapiens, UniProt P98170). Nature of the assay: In vitro PGAM5 ubiquitination assay with XIAP. To be noted: 50 nM UBE1, 200 nM UbcH5b, 700 nM XIAP, 1.5 μM PGAM5-His6. Format: biochemical.
Excerpt: as §1, with “antibody. […]” for “antibody.”

Assay [5] deals with T2, cIAP1 (Homo sapiens, UniProt Q13490).
T2 construct: expressed in transfected cells; host or cells: HEK293
T2 sequence (Q13490 whole entry): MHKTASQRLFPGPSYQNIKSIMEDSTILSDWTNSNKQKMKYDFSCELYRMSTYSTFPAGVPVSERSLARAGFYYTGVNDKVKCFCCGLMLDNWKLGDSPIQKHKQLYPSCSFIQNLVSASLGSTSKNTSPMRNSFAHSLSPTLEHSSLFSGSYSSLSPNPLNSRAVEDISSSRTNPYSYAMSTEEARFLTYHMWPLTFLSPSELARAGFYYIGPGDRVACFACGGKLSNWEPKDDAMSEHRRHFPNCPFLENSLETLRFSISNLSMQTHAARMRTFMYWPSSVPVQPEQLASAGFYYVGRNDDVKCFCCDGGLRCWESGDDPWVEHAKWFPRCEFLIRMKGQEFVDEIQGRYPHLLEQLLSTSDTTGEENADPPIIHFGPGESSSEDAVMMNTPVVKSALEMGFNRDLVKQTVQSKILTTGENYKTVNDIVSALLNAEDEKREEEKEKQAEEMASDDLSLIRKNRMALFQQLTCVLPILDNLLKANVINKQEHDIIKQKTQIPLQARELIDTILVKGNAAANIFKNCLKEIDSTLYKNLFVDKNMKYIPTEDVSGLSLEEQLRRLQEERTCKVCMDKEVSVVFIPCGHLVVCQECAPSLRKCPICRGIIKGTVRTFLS
As to the kind of experiment: In vitro PGAM5 ubiquitination assay with cIAP1. The settings on record: 50 nM UBE1, 200 nM UbcH5b, 700 nM cIAP1, 1.5 μM PGAM5-His6. In kind it is biochemical.
Excerpt: as §1, with “antibody. […]” for “antibody.”

The target in assay [6] is T2, cIAP1. As to the kind of experiment: Co-immunoprecipitation in HEK293 cells. In kind it is cell-based. To be noted: Flag-cIAP1 co-transfection, anti-Myc IP. As to the method: FIG. 13 illustrates functional studies of PGAM5 in cells. (A) PGAM5(Δ24) binds XIAP and cIAP1 in vivo. On the left, HEK293 cells were cotransfected with Flag-cIAP1 and PGAM5(FL)-Myc or PGAM5(Δ24)-Myc. Total cell lysates were analyzed by immune-blotting with anti-Flag and anti-Myc antibodies (bottom two panels). Anti-Myc immune-precipitates (IP) were subjected to immunoblot analysis using anti-Myc and anti-Flag antibodies (top two panels). On the right, PGAM5(Δ24)-Myc was transiently expressed in HEK293 cells. 36 hours after transfection, cells were lysed and subjected for Immuno-precipitation with either anti-Myc antibody or an isotype control antibody (mouse IgG). Proteins in the whole cell lysate (bottom three panels) and proteins that bind to the antibody conjugated sepharose beads (top three panels) were assayed with immunoblotting. An asterisk indicates the position of the immunoglobulin heavy chain. (B) XIAP and cIAP1 stimulate PGAM5(Δ24) ubiquitination in vivo. […] 24 hours after transfection, cell viability was measured by Annexin V staining. […] Error bars represent SEM calculated from triplicate experiments. […] Cell viability is then immediately measured by CellTiter-Glo luminescent assay. […] PGAM5 levels are analyzed with anti-Myc immune-blotting before STS treatment. Error bars represent SEM calculated from triplicate samples. […]

Where a SMILES comes first, the peptide text is derived from it. The star is where a group is joined. Cbz = O=C(OCc1ccccc1)*

Sequence of XIAP (P98170 whole entry): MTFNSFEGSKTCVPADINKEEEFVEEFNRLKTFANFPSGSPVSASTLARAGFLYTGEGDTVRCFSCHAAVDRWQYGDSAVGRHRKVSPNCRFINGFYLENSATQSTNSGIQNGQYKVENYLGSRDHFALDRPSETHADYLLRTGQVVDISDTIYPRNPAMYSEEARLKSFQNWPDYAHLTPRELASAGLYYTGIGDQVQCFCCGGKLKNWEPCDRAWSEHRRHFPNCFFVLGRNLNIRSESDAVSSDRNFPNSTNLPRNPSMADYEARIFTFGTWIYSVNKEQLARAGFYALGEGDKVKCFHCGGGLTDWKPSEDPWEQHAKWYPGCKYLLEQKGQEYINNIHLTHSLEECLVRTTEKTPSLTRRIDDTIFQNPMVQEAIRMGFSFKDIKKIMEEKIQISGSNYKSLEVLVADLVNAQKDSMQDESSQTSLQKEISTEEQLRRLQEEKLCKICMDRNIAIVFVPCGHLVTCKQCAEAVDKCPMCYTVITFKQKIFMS
T1 sequence (P98170 whole entry): as above

On to `CC(C)C[C@@H](C=O)NC(=O)[C@H](CC(C)C)NC(=O)[C@H](CC(C)C)NC(=O)OCc1ccccc1` [MG132] (Cbz-Leu-Leu-Leu-aldehyde), for which the “level of ubiquitination of PGAM5(Δ24)” value in assay [1] is on record as “increased”.
For the molecule `CN[C@@H]1C[C@H]2O[C@@](C)([C@@H]1OC)n1c3ccccc3c3c4c(c5c6ccccc6n2c5c31)C(=O)NC4` [STS, staurosporin], in assay [2], the “cytosolic level of PGAM5(Δ24)” value was “significant increase in PGAM5(Δ24)”.

B1: PGAM5(Δ24): cleaved form of PGAM5 lacking the first 24 residues, neo-IBM sequence starting with Ala25 (protein, UniProt Q96HS1 25-289, looked up, fragment)
chain: AVAVGKPRAGGDAEPRPAEPPAWAGGARPGPGVWDPNWDRREPLSLINVRKRNVESGEEELASKLDHYKAKATRHIFLIRHSQYHVDGSLEKDRTLTPLGREQAELTGLRLASLGLKFNKIVHSSMTRAIETTDIISRHLPGVCKVSTDLLREGAPIEPDPPVSHWKPEAVQYYEDGARIEAAFRNYIHRADARQEEDSYEIFICHANVIRYIVCRALQFPPEGWLRLSLNNGSITHLVIRPNGRVALRTLGDTGFMPPDKITRS
For B1, the “binding to XIAP (pull down)” value in assay [3] is recorded as “pulled down”. In addition, the “ubiquitination by XIAP” value in assay [4] is “ubiquitinates”. In addition, the “ubiquitination by cIAP1” value in assay [5] was “ubiquitinates”. In addition, the “binding to cellular cIAP1” value in assay [6] was “specifically binds”.
